The values that follow come from article PMC10997478.

Test [1] addresses neddylated ^Fluor568CRL2^FEM1C (human) (UniProt Q13617). Briefly: other fluorescence titration; environmental perturbation of Alexa Fluor 568 on neddylated ^Fluor568CRL2^FEM1C (25 or 50 nM); unlabeled UBE2R2 titrated; reaction buffer at ionic strength of 50 mM; one-site model.
The target of test [2] is NEDD8-Fluor568CRL2FEM1C (human) (UniProt Q15843). Briefly: other fluorescence titration; environmental perturbation of the Fluor568 dye: unlabelled UBE2R2 titrated into 25 or 50 nM NEDD8-Fluor568CRL2FEM1C; 30 mM Tris pH 7.5, 100 mM NaCl, BSA; one-site binding fit.
Test [3] has the same target. Briefly: other fluorescence titration; environmental perturbation of the Fluor568 dye: unlabelled UBE2R2 or UBE2R2C93K-ubiquitin titrated into 25 or 50 nM NEDD8-Fluor568CRL2FEM1C; 30 mM Tris pH 7.5, final 50 mM NaCl, BSA; one-site binding fit.
For another test, the target named is T1, FEM1C (human) (UniProt Q96JP0).
T1 sequence: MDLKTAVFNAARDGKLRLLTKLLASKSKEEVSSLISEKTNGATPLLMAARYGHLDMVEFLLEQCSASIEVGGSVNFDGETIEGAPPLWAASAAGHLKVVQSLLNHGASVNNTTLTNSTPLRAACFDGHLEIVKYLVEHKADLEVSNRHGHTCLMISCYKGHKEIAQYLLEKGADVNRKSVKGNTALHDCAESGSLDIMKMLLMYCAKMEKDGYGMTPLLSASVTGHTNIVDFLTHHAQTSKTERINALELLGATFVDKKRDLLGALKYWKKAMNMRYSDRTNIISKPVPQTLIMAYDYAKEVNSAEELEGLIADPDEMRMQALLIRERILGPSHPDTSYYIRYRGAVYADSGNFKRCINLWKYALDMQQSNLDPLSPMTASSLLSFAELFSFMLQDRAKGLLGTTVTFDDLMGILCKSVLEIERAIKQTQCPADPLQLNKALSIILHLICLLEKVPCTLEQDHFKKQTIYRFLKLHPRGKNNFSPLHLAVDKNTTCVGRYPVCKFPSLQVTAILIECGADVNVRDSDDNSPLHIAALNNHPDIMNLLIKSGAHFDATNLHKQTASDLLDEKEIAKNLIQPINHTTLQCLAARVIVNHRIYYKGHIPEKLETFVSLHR

In test [4] the target is NEDD8-Fluor568CRL2FEM1C (human) (UniProt Q15843).
Test [5] deals with neddylated Fluor568CRL2VHL (human) (UniProt Q15843).
In test [6] the target is NEDD8-Fluor568CRL2FEM1C (human) (UniProt Q15843). Briefly: other fluorescence titration.
Test [7] has as its target NEDD8-Fluor568CUL2-RBX1 (human) (UniProt Q15843). Briefly: FRET or BRET; Fluor647UBE2R2C93K titrated into 25 or 50 nM NEDD8-Fluor568CUL2-RBX1 in solution; 30 mM Tris pH 7.5, 100 mM NaCl, BSA; excitation 575 nm; one-site binding fit.
Test [8] has the same target. Briefly: FRET or BRET; Fluor647UBE2R2C93K titrated into 25 or 50 nM NEDD8-Fluor568CUL2-RBX1 in solution; 30 mM Tris pH 7.5, final 50 mM NaCl, BSA; excitation 575 nm; one-site binding fit.

Sequence of ARIH1 (Q9Y4X5 whole entry): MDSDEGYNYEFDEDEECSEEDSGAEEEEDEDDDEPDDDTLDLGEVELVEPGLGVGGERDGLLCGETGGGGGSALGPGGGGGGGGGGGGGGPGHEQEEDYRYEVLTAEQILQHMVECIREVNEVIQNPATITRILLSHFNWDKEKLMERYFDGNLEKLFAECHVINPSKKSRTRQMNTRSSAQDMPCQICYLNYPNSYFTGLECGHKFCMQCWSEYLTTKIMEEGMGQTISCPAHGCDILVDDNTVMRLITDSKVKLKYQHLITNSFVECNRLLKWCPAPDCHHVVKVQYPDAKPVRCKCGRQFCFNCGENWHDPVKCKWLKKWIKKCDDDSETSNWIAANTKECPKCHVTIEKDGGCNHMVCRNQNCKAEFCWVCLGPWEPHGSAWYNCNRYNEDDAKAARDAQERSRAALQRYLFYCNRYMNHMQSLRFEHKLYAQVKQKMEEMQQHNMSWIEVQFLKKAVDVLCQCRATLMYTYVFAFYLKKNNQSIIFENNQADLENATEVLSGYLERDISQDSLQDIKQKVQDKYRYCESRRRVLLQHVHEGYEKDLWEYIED
Sequence of UBE2D3 (P61077 whole entry): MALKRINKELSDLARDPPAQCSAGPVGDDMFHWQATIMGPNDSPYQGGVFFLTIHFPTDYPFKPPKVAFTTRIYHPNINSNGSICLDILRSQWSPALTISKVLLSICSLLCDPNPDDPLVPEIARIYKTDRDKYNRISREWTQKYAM
Sequence of UBE2G1 (P62253 whole entry): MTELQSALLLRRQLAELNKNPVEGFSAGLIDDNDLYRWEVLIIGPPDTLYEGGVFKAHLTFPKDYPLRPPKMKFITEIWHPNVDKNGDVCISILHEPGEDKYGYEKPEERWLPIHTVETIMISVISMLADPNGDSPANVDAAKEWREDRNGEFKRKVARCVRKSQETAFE

In the case of “UBE2R2 (wild type, unlabeled) (from UniProt Q712K3 1-238) (enzyme)”, in [1], the fold decrease of Kd against neddylated CUL2-RBX1 alone was 7 fold.
With “UBE2R2 (wild-type, unlabeled) (from UniProt Q712K3 1-238) (enzyme)”, the Kd worked out at 156 nM in test [2] and 44 nM in test [3].
On to “E88R UBE2R2 (from UniProt Q712K3 1-238) (enzyme)”, for which the catalytic efficiency of Sil1 peptide priming with neddylated CRL2^FEM1C, against wild type in the test with FEM1C (human) is 300 fold.
In test [4], “UBE2D3 (from UniProt P61077 1-147) (enzyme)” displayed a Table S1: Km of the UCE for the CRL complex; ubiquitin priming of Sil1 peptide, UBE2D3 (K0 ubiquitin) with unlabelled neddylated CRL2FEM1C, Michaelis-Menten fit of 0.916 µM. Besides, the Table S1: Km of the UCE for the CRL complex; ubiquitin priming of Hif1α peptide, UBE2D3 (K0 ubiquitin) with unlabelled neddylated CRL2VHL, Michaelis-Menten fit in test [5] was found to be 6.24 µM.
In the case of “UBE2G1 (from UniProt P62253 1-170) (enzyme)”, the Table S1: Km of the UCE for the CRL complex; ubiquitin priming of Sil1 peptide, UBE2G1 (K0 ubiquitin) with unlabelled neddylated CRL2FEM1C, Michaelis-Menten fit in test [4] is 1.14 µM.
As for “ARIH1 (from UniProt Q9Y4X5 1-557) (enzyme)”, the Table S1: Km of the UCE for the CRL complex; ubiquitin priming of Sil1 peptide, ARIH1 (with UBE2L3, K0 ubiquitin) with unlabelled neddylated CRL2FEM1C, Michaelis-Menten fit in [4] was 0.143 µM. In test [5], the Table S1: Km of the UCE for the CRL complex; ubiquitin priming of Hif1α peptide, ARIH1 (with UBE2L3, K0 ubiquitin) with unlabelled neddylated CRL2VHL, Michaelis-Menten fit stood at 0.151 µM.
Consider “UBE2R2C93K-ubiquitin (from UniProt Q712K3 1-238; P0CG48 1-76) (complex)”, for which the Kd in [6] was determined as 50 nM.
As to “Fluor647UBE2R2C93K (from UniProt Q712K3 1-238) (enzyme)”, the Kd in test [7] came out at 1140 nM; in test [8], 276 nM.
